Measured values taken from publication PMC5153249.
Where “and” joins values, the source holds several entries; their conditions need not be identical. Equal entries are not always repeated.

Legend:
[1] = tested on: yeast 43S PIC: 40S+eIF1+eIF1A+eIF2 (Met-tRNAi TC); for mRNA recruitment also eIF5, eIF4A, eIF4B, eIF4E-eIF4G (Saccharomyces cerevisiae); assay: EMSA; conditions: no eIF3, measurement 1, m7G cap, 30 mM HEPES-KOH pH 7.4, 100 mM KOAc, 3 mM Mg(OAc)2, 2 mM DTT, 1 mM GDPNP, 26 C, 2 h, native 4% THEM gel
[2] = tested on: yeast 43S PIC: 40S+eIF1+eIF1A+eIF2 (Met-tRNAi TC); for mRNA recruitment also eIF5, eIF4A, eIF4B, eIF4E-eIF4G;eIF3 (a Box37) (Saccharomyces cerevisiae;Saccharomyces cerevisiae); assay: EMSA; conditions: measurement 1; m7G cap; 30 mM HEPES-KOH pH 7.4, 100 mM KOAc, 3 mM Mg(OAc)2, 2 mM DTT, 1 mM GDPNP, 26 C, 2 h; native 4% THEM gel
[3] = tested on: yeast 43S PIC: 40S+eIF1+eIF1A+eIF2 (Met-tRNAi TC); for mRNA recruitment also eIF5, eIF4A, eIF4B, eIF4E-eIF4G;eIF3 (a Box6) (Saccharomyces cerevisiae;Saccharomyces cerevisiae); assay: EMSA; conditions: measurement 1; m7G cap; 30 mM HEPES-KOH pH 7.4, 100 mM KOAc, 3 mM Mg(OAc)2, 2 mM DTT, 1 mM GDPNP, 26 C, 2 h; native 4% THEM gel
[4] = tested on: yeast 43S PIC: 40S+eIF1+eIF1A+eIF2 (Met-tRNAi TC); for mRNA recruitment also eIF5, eIF4A, eIF4B, eIF4E-eIF4G;eIF3 (a H725P) (Saccharomyces cerevisiae;Saccharomyces cerevisiae); assay: EMSA; conditions: measurement 1; m7G cap; 30 mM HEPES-KOH pH 7.4, 100 mM KOAc, 3 mM Mg(OAc)2, 2 mM DTT, 1 mM GDPNP, 26 C, 2 h; native 4% THEM gel
[5] = tested on: yeast 43S PIC: 40S+eIF1+eIF1A+eIF2 (Met-tRNAi TC); for mRNA recruitment also eIF5, eIF4A, eIF4B, eIF4E-eIF4G;eIF3 (a R731I) (Saccharomyces cerevisiae;Saccharomyces cerevisiae); assay: EMSA; conditions: measurement 1; m7G cap; 30 mM HEPES-KOH pH 7.4, 100 mM KOAc, 3 mM Mg(OAc)2, 2 mM DTT, 1 mM GDPNP, 26 C, 2 h; native 4% THEM gel
[6] = tested on: yeast 43S PIC: 40S+eIF1+eIF1A+eIF2 (Met-tRNAi TC); for mRNA recruitment also eIF5, eIF4A, eIF4B, eIF4E-eIF4G;eIF3 (a delta8) (Saccharomyces cerevisiae;Saccharomyces cerevisiae); assay: EMSA; conditions: measurement 1; m7G cap; 30 mM HEPES-KOH pH 7.4, 100 mM KOAc, 3 mM Mg(OAc)2, 2 mM DTT, 1 mM GDPNP, 26 C, 2 h; native 4% THEM gel
[7] = tested on: yeast 43S PIC: 40S+eIF1+eIF1A+eIF2 (Met-tRNAi TC); for mRNA recruitment also eIF5, eIF4A, eIF4B, eIF4E-eIF4G;eIF3 (b prt1-1) (Saccharomyces cerevisiae;Saccharomyces cerevisiae); assay: EMSA; conditions: measurement 1; m7G cap; 30 mM HEPES-KOH pH 7.4, 100 mM KOAc, 3 mM Mg(OAc)2, 2 mM DTT, 1 mM GDPNP, 26 C, 2 h; native 4% THEM gel
[8] = tested on: yeast 43S PIC: 40S+eIF1+eIF1A+eIF2 (Met-tRNAi TC); for mRNA recruitment also eIF5, eIF4A, eIF4B, eIF4E-eIF4G;eIF3 (b rnp1) (Saccharomyces cerevisiae;Saccharomyces cerevisiae); assay: EMSA; conditions: measurement 1; m7G cap; 30 mM HEPES-KOH pH 7.4, 100 mM KOAc, 3 mM Mg(OAc)2, 2 mM DTT, 1 mM GDPNP, 26 C, 2 h; native 4% THEM gel
[9] = tested on: yeast 43S PIC: 40S+eIF1+eIF1A+eIF2 (Met-tRNAi TC); for mRNA recruitment also eIF5, eIF4A, eIF4B, eIF4E-eIF4G;eIF3 (c Box12-SPW) (Saccharomyces cerevisiae;Saccharomyces cerevisiae); assay: EMSA; conditions: measurement 1; m7G cap; 30 mM HEPES-KOH pH 7.4, 100 mM KOAc, 3 mM Mg(OAc)2, 2 mM DTT, 1 mM GDPNP, 26 C, 2 h; native 4% THEM gel
[10] = tested on: yeast 43S PIC: 40S+eIF1+eIF1A+eIF2 (Met-tRNAi TC); for mRNA recruitment also eIF5, eIF4A, eIF4B, eIF4E-eIF4G;eIF3 (c GAP85) (Saccharomyces cerevisiae;Saccharomyces cerevisiae); assay: EMSA; conditions: measurement 1; m7G cap; 30 mM HEPES-KOH pH 7.4, 100 mM KOAc, 3 mM Mg(OAc)2, 2 mM DTT, 1 mM GDPNP, 26 C, 2 h; native 4% THEM gel
[11] = tested on: yeast 43S PIC: 40S+eIF1+eIF1A+eIF2 (Met-tRNAi TC); for mRNA recruitment also eIF5, eIF4A, eIF4B, eIF4E-eIF4G;eIF3 (c delta60) (Saccharomyces cerevisiae;Saccharomyces cerevisiae); assay: EMSA; conditions: measurement 1; m7G cap; 30 mM HEPES-KOH pH 7.4, 100 mM KOAc, 3 mM Mg(OAc)2, 2 mM DTT, 1 mM GDPNP, 26 C, 2 h; native 4% THEM gel
[12] = tested on: yeast 43S PIC: 40S+eIF1+eIF1A+eIF2 (Met-tRNAi TC); for mRNA recruitment also eIF5, eIF4A, eIF4B, eIF4E-eIF4G;eIF3 (g KLF) (Saccharomyces cerevisiae;Saccharomyces cerevisiae); assay: EMSA; conditions: measurement 1; m7G cap; 30 mM HEPES-KOH pH 7.4, 100 mM KOAc, 3 mM Mg(OAc)2, 2 mM DTT, 1 mM GDPNP, 26 C, 2 h; native 4% THEM gel
[13] = tested on: yeast 43S PIC: 40S+eIF1+eIF1A+eIF2 (Met-tRNAi TC); for mRNA recruitment also eIF5, eIF4A, eIF4B, eIF4E-eIF4G;eIF3 (i Q258R) (Saccharomyces cerevisiae;Saccharomyces cerevisiae); assay: EMSA; conditions: measurement 1; m7G cap; 30 mM HEPES-KOH pH 7.4, 100 mM KOAc, 3 mM Mg(OAc)2, 2 mM DTT, 1 mM GDPNP, 26 C, 2 h; native 4% THEM gel
[14] = tested on: yeast 43S PIC: 40S+eIF1+eIF1A+eIF2 (Met-tRNAi TC); for mRNA recruitment also eIF5, eIF4A, eIF4B, eIF4E-eIF4G;eIF3 WT (a/b/c/i/g) (Saccharomyces cerevisiae;Saccharomyces cerevisiae); assay: EMSA; conditions: measurement 1; m7G cap; 30 mM HEPES-KOH pH 7.4, 100 mM KOAc, 3 mM Mg(OAc)2, 2 mM DTT, 1 mM GDPNP, 26 C, 2 h; native 4% THEM gel
[15] = tested on: yeast 43S PIC: 40S+eIF1+eIF1A+eIF2 (Met-tRNAi TC); for mRNA recruitment also eIF5, eIF4A, eIF4B, eIF4E-eIF4G;eIF3 a/b/c sub-complex (Saccharomyces cerevisiae;Saccharomyces cerevisiae); assay: EMSA; conditions: measurement 1; m7G cap; 30 mM HEPES-KOH pH 7.4, 100 mM KOAc, 3 mM Mg(OAc)2, 2 mM DTT, 1 mM GDPNP, 26 C, 2 h; native 4% THEM gel
[16] = target: 48S pre-initiation complex (40S, eIF1, eIF1A, ternary complex, AUG-containing model mRNA) (S. cerevisiae) (UniProt P32911); assay: other; 48S PIC, + mRNA
[17] = target: 43S pre-initiation complex (40S ribosomal subunit, eIF1, eIF1A and eIF2•GDPNP•Met-tRNAi ternary complex); called 48S PIC when AUG-containing model mRNA is added (yeast) (UniProt P32911); assay: other; 43S PIC, no mRNA
[18] = target: 43S pre-initiation complex (40S ribosomal subunit, eIF1, eIF1A and eIF2•GDPNP•Met-tRNAi ternary complex); called 48S PIC when AUG-containing model mRNA is added (yeast) (UniProt P32911); assay: native gel or EMSA; eIF3 (30-500 nM) titrated into 48S PICs: 1 µM uncapped AUG-containing model mRNA, 20 nM 40S, 1 µM eIF1, 1 µM eIF1A, 200 nM eIF2, 1 mM GDPNP•Mg2+, 2 nM [35S]-Met-tRNAi; 26 °C, 2 h; apparent KD from a Hill fit
[19] = target: 43S pre-initiation complex (40S ribosomal subunit, eIF1, eIF1A and eIF2•GDPNP•Met-tRNAi ternary complex); called 48S PIC when AUG-containing model mRNA is added (yeast) (UniProt P32911); assay: native gel or EMSA; eIF3 (30-500 nM) titrated into 43S PICs without mRNA: 30 nM 40S, 1 µM eIF1, 1 µM eIF1A, 200 nM eIF2, 1 mM GDPNP•Mg2+, 2 nM [35S]-Met-tRNAi; 1X Recon buffer (30 mM HEPES-KOH pH 7.4, 100 mM KOAc pH 7.6, 3 mM Mg(OAc)2, 2 mM DTT); 26 °C, 2 h; apparent KD from a Hill fit, free eIF3 corrected for free …
[20] = target: 48S pre-initiation complex (40S, eIF1, eIF1A, ternary complex, AUG-containing model mRNA) (S. cerevisiae) (UniProt P32911); assay: native gel or EMSA; gel shift monitoring [35S]-Met-tRNAi; 48S PICs with 1 µM uncapped AUG-containing model mRNA (1 µM eIF1, 1 µM eIF1A, 200 nM eIF2, 1 mM GDPNP•Mg2+, 2 nM Met-tRNAi, 20 nM 40S); eIF3 titrated 30-500 nM; 1X Recon buffer, 26 °C, 2 h; apparent KD, Hill equation; single experiments; apparent affinities ≤ 30 nM likely upper limits
[21] = target: 43S pre-initiation complex (40S, eIF1, eIF1A, ternary complex; no mRNA) (S. cerevisiae) (UniProt P32911); assay: native gel or EMSA; gel shift monitoring [35S]-Met-tRNAi; 43S PICs without mRNA (1 µM eIF1, 1 µM eIF1A, 200 nM eIF2, 1 mM GDPNP•Mg2+, 2 nM Met-tRNAi, 30 nM 40S); eIF3 titrated 30-500 nM; 1X Recon buffer (30 mM HEPES-KOH pH 7.4, 100 mM KOAc, 3 mM Mg(OAc)2, 2 mM DTT), 26 °C, 2 h; apparent KD, Hill equation; single experiments; apparent affinities ≤ 30 nM likely upper limits

| Kd [20] | Kd [21] | Substance | binding signal [1] | binding signal [3] | binding signal [4] | binding signal [5] | binding signal [6] | binding signal [14] | binding signal [15] | further results |
| --- | --- | --- | --- | --- | --- | --- | --- | --- | --- | --- |
| – | – | 5'5-AUG model mRNA | 68.2 % recruited | 62.5 % recruited | 58.2 % recruited | 57.7 % recruited | 91.7 % recruited | 84.1 % recruited | 32.1 % recruited | binding signal [2]: 82.5 % recruited; binding signal [7]: 79.9 % recruited; binding signal [8]: 69.4 % recruited; binding signal [9]: 85.3 % recruited; binding signal [10]: 80.1 % recruited; binding signal [11]: 87.9 % recruited; binding signal [12]: 84.7 % recruited; binding signal [13]: 80.3 % recruited |
| – | – | eIF3a/b/c sub-complex lacking the i and g subunits (eIF3 purified from eIF3i DDKK cells) (from UniProt P38249 1-964; P06103 1-763; P32497 1-812) | – | – | – | – | – | – | – | Kd [16]: 109 nM; Kd [17]: 90 nM; fold decrease of apparent affinity against WT eIF3 [18]: 3 fold; fold decrease of apparent affinity against WT eIF3 [19]: 2 fold |
| 106 nM and 111 nM | 87 nM and 98 nM | eIF3a/b/c sub-complex lacking the i and g subunits (from UniProt P38249 1-964; P06103 1-763; P32497 1-812) | – | – | – | – | – | – | – | – |
| – | – | 5'11-AUG model mRNA | – | 97.8 % recruited | 94.6 % recruited | 91.8 % recruited | – | 97.9 % recruited | 66.7 % recruited | binding signal ([1]; columns as in Fig 5): 90.9 % recruited |
| – | – | 3'17-AUG model mRNA | 71.4 % recruited | – | – | – | 89.9 % recruited | 97.2 % recruited | – | – |
| 41 nM and 52 nM | 27 nM and 21 nM | eIF3 variant ∆60 (eIF3c/Nip1 CTD) (from UniProt P38249 1-964; P06103 1-763; P32497 1-752; P40217 1-347; Q04067 1-274) (complex) | – | – | – | – | – | – | – | – |
